For this assay, the target named is trimeric BG505.SOSIP.664 T332N-avi-biotinylated protein (HIV-1 (BG505, clade A)). Nature of the assay: native gel or EMSA; BN-PAGE (NuPAGE 4-12% BisTris) of the SEC trimer peak, before and after biotinylation.

The text below walks through data of PMC13411919.

The term stoichiometry N denotes the number of molecules, sites or subunits per partner or assembly. “trimeric BG505.SOSIP.664 T332N-avi-biotinylated protein (domain or fragment)” came in with a stoichiometry N of 3.
